# Experimental data reported in PMC10505908.
# T1: HMCES SRAP R98E R98E (human) (UniProt Q96FZ2)
# T1 sequence: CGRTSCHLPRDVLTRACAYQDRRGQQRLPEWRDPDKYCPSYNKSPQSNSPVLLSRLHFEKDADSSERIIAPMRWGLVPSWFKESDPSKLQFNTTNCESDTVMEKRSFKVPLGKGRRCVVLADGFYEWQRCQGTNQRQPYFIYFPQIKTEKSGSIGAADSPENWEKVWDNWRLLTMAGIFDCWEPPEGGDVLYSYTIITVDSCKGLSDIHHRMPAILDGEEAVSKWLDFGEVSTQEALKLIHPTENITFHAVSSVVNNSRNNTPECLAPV
# T2: HMCES SRAP E127A E127A (human) (UniProt Q96FZ2)
# T2 sequence: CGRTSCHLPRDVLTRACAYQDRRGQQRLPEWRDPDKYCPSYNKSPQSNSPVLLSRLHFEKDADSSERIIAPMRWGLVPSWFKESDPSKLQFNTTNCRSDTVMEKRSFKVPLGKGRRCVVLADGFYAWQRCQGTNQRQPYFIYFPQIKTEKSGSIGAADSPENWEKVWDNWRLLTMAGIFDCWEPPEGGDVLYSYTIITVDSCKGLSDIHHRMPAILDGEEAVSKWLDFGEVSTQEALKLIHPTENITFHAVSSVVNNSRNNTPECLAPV
# T3: HMCES SRAP E127A (human, UniProt Q96FZ2 2-270, E127A)
# T3 sequence: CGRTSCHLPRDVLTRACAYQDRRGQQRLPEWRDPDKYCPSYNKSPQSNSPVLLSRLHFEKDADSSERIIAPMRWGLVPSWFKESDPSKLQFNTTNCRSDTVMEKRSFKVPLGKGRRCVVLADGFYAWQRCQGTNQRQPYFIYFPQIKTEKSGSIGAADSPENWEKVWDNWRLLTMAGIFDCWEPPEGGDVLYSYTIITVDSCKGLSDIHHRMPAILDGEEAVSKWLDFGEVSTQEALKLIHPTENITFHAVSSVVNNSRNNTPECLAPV
# How the values were obtained:
# [1] = target: T1, HMCES SRAP R98E R98E (human); experiment: covalent DPC formation, SDS-PAGE; settings: N15 = AP site from dU by UDG
# [2] = target: T2, HMCES SRAP E127A E127A (human); experiment: covalent DPC formation, SDS-PAGE; settings: N15 = AP site from dU by UDG
# [3] = target: T3, HMCES SRAP E127A; experiment: fluorescence polarization
Molecule,binding signal (fraction crosslinked) [1],binding signal (fraction crosslinked) [2],binding result [3]
CCCAAAAAAAAAAANAAAAAAAAAAAACCC / GGGTTTTTTTTTTTTATTTTTTTTTTTGGG [30mer AP site dsDNA],0,0,
CCCAAAAAAAAAAATAAAAAAAAAAAACCC (ssDNA) [30mer dT-oligonucleotide],,,binds
